Four molecules from article PMC11535055, “ER-phagy restrains inflammatory responses through its receptor UBAC2” (The EMBO Journal, 2024) can be followed below.

The term stoichiometry N denotes a count of units in the complex or per binding partner.

The target of one data set is GABARAP (UniProt O95166). The data set is described as follows: co-IP Flag-GABARAP with HA-UBAC2. Conditions: reference: wild type; sites S223.
Data set [1] deals with the molecule itself. The data set is described as follows: cross-linking; extracts of HeLa cells (also WT THP-1 macrophages and HT-29 cells) treated with TG or EBSS in the presence of Baf A1 (0.2 uM); 2 mM disuccinimidyl suberate (DSS), immunoblot for endogenous UBAC2. A general note: A western blot detects proteins with antibodies after separation by electrophoresis.
Data set [2] concerns the molecule itself. The experiment in a line: cross-linking; 293T cells transfected with WT UBAC2 or S223 mutants, TG (1 uM, 1 h) or EBSS (3 h) with Baf A1 (0.2 uM), with scramble or MARK2 siRNA; lysates treated with 2 mM DSS, immunoblot.

Consider UBAC2 (from UniProt Q8NBM4) S223A, for which, in the data set with GABARAP, the “binding against the reference” value is “weaker”.

B1: UBAC2, endogenous (natural protein, human (endogenous in HeLa, THP-1, HT-29), UniProt Q8NBM4 36-344, looked up)
chain: HCQKLFVYDLHAVKNDFQIWRLICGRIICLDLKDTFCSSLLIYNFRIFERRYGSRKFASFLLGSWVLSALFDFLLIEAMQYFFGITAASNLPSGFLAPVFALFVPFYCSIPRVQVAQILGPLSITNKTLIYILGLQLFTSGSYIWIVAISGLMSGLCYDSKMFQVHQVLCIPSWMAKFFSWTLEPIFSSSEPTSEARIGMGATLDIQRQQRMELLDRQLMFSQFAQGRRQRQQQGGMINWNRLFPPLRQRQNVNYQGGRQSEPAAPPLEVSEEQVARLMEMGFSRGDALEALRASNNDLNVATNFLLQH
notes: UBAC2 endogenous in human cell lines; also called ubiquitin-associated domain-containing protein 2; source: endogenous, lysates of HeLa cells, THP-1-derived macrophages and HT-29 cells
For B1, the “stoichiometry N” value in data set [1] is 2.

B2: UBAC2 S223D, transfected (cross-linking experiments) (natural protein, human, UniProt Q8NBM4 36-344, looked up)
chain: HCQKLFVYDLHAVKNDFQIWRLICGRIICLDLKDTFCSSLLIYNFRIFERRYGSRKFASFLLGSWVLSALFDFLLIEAMQYFFGITAASNLPSGFLAPVFALFVPFYCSIPRVQVAQILGPLSITNKTLIYILGLQLFTSGSYIWIVAISGLMSGLCYDSKMFQVHQVLCIPSWMAKFFSWTLEPIFDSSEPTSEARIGMGATLDIQRQQRMELLDRQLMFSQFAQGRRQRQQQGGMINWNRLFPPLRQRQNVNYQGGRQSEPAAPPLEVSEEQVARLMEMGFSRGDALEALRASNNDLNVATNFLLQH
notes: UBAC2, human; also called S223D mutant form of UBAC2
For the molecule B2, the “stoichiometry N” value in data set [2] worked out at 2.

B3: UBAC2 wild type, transfected (cross-linking experiments) (natural protein, human, UniProt Q8NBM4 36-344, looked up)
chain: HCQKLFVYDLHAVKNDFQIWRLICGRIICLDLKDTFCSSLLIYNFRIFERRYGSRKFASFLLGSWVLSALFDFLLIEAMQYFFGITAASNLPSGFLAPVFALFVPFYCSIPRVQVAQILGPLSITNKTLIYILGLQLFTSGSYIWIVAISGLMSGLCYDSKMFQVHQVLCIPSWMAKFFSWTLEPIFSSSEPTSEARIGMGATLDIQRQQRMELLDRQLMFSQFAQGRRQRQQQGGMINWNRLFPPLRQRQNVNYQGGRQSEPAAPPLEVSEEQVARLMEMGFSRGDALEALRASNNDLNVATNFLLQH
notes: UBAC2, human; also called WT UBAC2
On to B3, for which the “stoichiometry N” value in data set [2] was 2.
